First the molecules themselves.
B1: cytochrome c1 subunit of the R. sphaeroides cytochrome bc1 complex (Rsbc1), his-tag at the C-terminus (natural protein, UniProt Q02760 23-285, looked up)
chain: AGGGHVEDVPFSFEGPFGTFDQHQLQRGLQVYTEVCAACHGMKFVPIRSLSEPGGPELPEDQVRAYATQFTVTDEETGEDREGKPTDHFPHSALENAADLSLMAKARAGFHGPMGTGISQLFNGIGGPEYIYSVLTGFPEEPPKCAEGHEPDGFYYNRAFQNGSVPDTCKDANGVKTTAGSWIAMPPPLMDDLVEYADGHDASVHAMAEDVSAFLMWAAEPKLMARKQAGFTAVMFLTVLSVLLYLTNKRLWAGVKGKKKTNV
B2: cytochrome b S287R, subunit of the double mutant S287R(cyt b)/V135S(ISP) Rsbc1 (natural protein, R. sphaeroides, UniProt Q02761 1-445, looked up)
chain: MSGIPHDHYEPRTGIEKWLHSRLPIVALAYDTIMIPTPRNLNWMWIWGVVLAFCLVLQIVTGIVLAMHYTPHVDLAFASVEHIMRNVNGGFMLRYLHANGASLFFIAVYLHIFRGLYYGSYKAPREVTWIVGMLIYLAMMATAFMGYVLPWGQMSFWGATVITGLFGAIPGIGHSIQTWLLGGPAVDNATLNRFFSLHYLLPFVIAALVAIHIWAFHSTGNNNPTGVEVRRTSKAEAQKDTVPFWPYFIIKDVFALAVVLLVFFAIVGFMPNYLGHPDNYIEANPLRTPAHIVPEWYFLPFYAILRAFTADVWVVQIANFISFGIIDAKFFGVLAMFGAILVMALVPWLDTSPVRSGRYRPMFKIYFWLLAADFVILTWVGAQQTTFPYDWISLIASAYWFAYFLVILPILGAIEKPVAPPATIEEDFNAHYSPATGGTKTVVAE
B3: Rieske iron-sulfur protein V135S, subunit of the double mutant S287R(cyt b)/V135S(ISP) Rsbc1 (natural protein, R. sphaeroides, UniProt Q02762 1-187, looked up)
chain: MSNAEDHAGTRRDFLYYATAGAGAVATGAAVWPLINQMNPSADVQALASIFVDVSSVEPGVQLTVKFLGKPIFIRRRTEADIELGRSVQLGQLVDTNARNANIDAGAEATDQNRTLDEAGEWLVMWGVCTHLGCSPIGGVSGDFGGWFCPCHGSHYDSAGRIRKGPAPENLPIPLAKFIDETTIQLG
B4: cytochrome b subunit of the wild-type R. sphaeroides cytochrome bc1 complex (Rsbc1) (natural protein)
chain: GIPHDHYEPRTGIEKWLHSRLPIVALAYDTIMIPTPRNLNWMWIWGVVLAFCLVLQIVTGIVLAMHYTPHVDLAFASVEHIMRNVNGGFMLRYLHANGASLFFIAVYLHIFRGLYYGSYKAPREVTWIVGMLIYLAMMATAFMGYVLPWGQMSFWGATVITGLFGAIPGIGHSIQTWLLGGPAVDNATLNRFFSLHYLLPFVIAALVAIHIWAFHSTGNNNPTGVEVRRTSKAEAQKDTVPFWPYFIIKDVFALAVVLLVFFAIVGFMPNYLGHPDNYIEANPLSTPAHIVPEWYFLPFYAILRAFTADVWVVQIANFISFGIIDAKFFGVLAMFGAILVMALVPWLDTSPVRSGRYRPMFKIYFWLLAADFVILTWVGAQQTTFPYDWISLIASAYWFAYFLVILPILGAIEKPVAPPATIEEDFNA
B5: Rieske iron-sulfur protein subunit of the wild-type R. sphaeroides cytochrome bc1 complex (Rsbc1) (natural protein)
chain: GTRRDFLYYATAGAGAVATGAAVWPLINQMNPSADVQALASIFVDVSSVEPGVQLTVKFLGKPIFIRRRTEADIELGRSVQLGQLVDTNARNANIDAGAEATDQNRTLDEAGEWLVMWGVCTHLGCVPIGGVSGDFGGWFCPCHGSHYDSAGRIRKGPAPENLPIPLAKFIDETTIQLG

Series [1] has as its target B2. As to the kind of experiment: crystal structure.
Series [2] concerns the target B4. The series is described as follows: SEC. For orientation: In gel filtration, larger molecules generally elute earlier.
Series [3] concerns the molecule itself. The series is described as follows: crystal structure.
Series [4] concerns the molecule itself. As to the kind of experiment: crystal structure. This is another data set of the same source.
For series [5], the target named is B4. The series is described as follows: crystal structure.

For the molecule B1, the binding result in series [1] and in series [2] was “binds” each time. One may read the stoichiometry N as the number of molecules, sites or subunits per partner or assembly. Regarding B2, the “stoichiometry N” value in series [3] was 2. With B3, the binding result in series [1] is “binds”. In the case of B4, in series [4], the binding result is “binds”.

On to B5, for which the binding result in series [5] is recorded as “binds”.

Values taken from PMC4788495 (Journal of bioenergetics and biomembranes, 2008).
